This is an account of results in patent US20230049152A1 (Genentech, published 2023).

One test addresses T1, hCCR8 D2A (human, UniProt P51685 1-355).
T1 construct: alanine point mutant on transfected HEK 293 cells
As to the kind of experiment: flow cytometry, HEK293 transfected with hCCR8 D2A with C-terminal FLAG. Background: A flow cytometer gives signals particle by particle.

For another test, the target named is T2, T10A.
T2 construct: single alanine mutant of hCCR8; also called hCCR8 T10A
T2 receptor chain: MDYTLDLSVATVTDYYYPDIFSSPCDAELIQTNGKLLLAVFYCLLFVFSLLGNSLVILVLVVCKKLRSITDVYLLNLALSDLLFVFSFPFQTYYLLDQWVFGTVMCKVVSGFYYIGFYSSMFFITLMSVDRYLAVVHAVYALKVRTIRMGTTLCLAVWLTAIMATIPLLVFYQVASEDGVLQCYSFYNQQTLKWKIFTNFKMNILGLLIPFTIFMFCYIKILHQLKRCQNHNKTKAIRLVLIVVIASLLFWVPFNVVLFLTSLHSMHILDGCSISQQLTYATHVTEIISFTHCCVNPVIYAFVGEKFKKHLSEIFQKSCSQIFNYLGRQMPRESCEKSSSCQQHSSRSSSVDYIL
As to the kind of experiment: flow cytometry, HEK293 transfected with hCCR8 T10A with C-terminal FLAG; sheet prints [huCCR8]=0.02 ug/ml.

For a further test, the target named is T3, S23A.
T3 construct: single alanine mutant of hCCR8; also called hCCR8 S23A
T3 receptor chain: T2 receptor chain with A10T, S23A
Description: flow cytometry, HEK293 transfected with hCCR8 S23A with C-terminal FLAG; sheet prints [huCCR8]=0.02 ug/ml. Here is the method:
(§1) FIGS. 16A-16B depict the epitope maps for hu.Ab5.H13L1 (FIG. 16A) and hu.Ab4.H12L3 (FIG. 16B) mAbs.
(§2) To epitope map fucosylated hu.Ab5.H13L1, the binding to alanine point mutations in human CCR8 was analyzed by flow cytometry.

The next test concerns the target T4, Y17A.
T4 construct: single alanine mutant of hCCR8; also called hCCR8 Y17A
T4 receptor chain: T2 receptor chain with A10T, Y17A
Description: flow cytometry, HEK293 transfected with hCCR8 Y17A with C-terminal FLAG; sheet prints [huCCR8]=0.02 ug/ml. Here is the method: as §1, §2

The target in another test is T5, I20A.
T5 construct: single alanine mutant of hCCR8; also called hCCR8 I20A
T5 receptor chain: T2 receptor chain with A10T, I20A
As to the kind of experiment: flow cytometry, HEK293 transfected with hCCR8 I20A with C-terminal FLAG; sheet prints [huCCR8]=0.02 ug/ml.

The target in test [1] is T6, CCR8 with C-terminal FLAG.
T6 construct: expressed on transfected HEK293 cells; also called hCCR8 with a C-terminal FLAG tag
As to the kind of experiment: flow cytometry, HEK293 transfected with CCR8 with C-terminal FLAG.

The target in the next test is T7, hCCR8 L5A (human, UniProt P51685 1-355).
T7 construct: alanine point mutant on transfected HEK 293 cells
Description: flow cytometry on transfected HEK 293 cells. As for the experimental part: as §2
Constructs encoding for individual alanine point mutations at positions 2-24 in hCCR8 with a C-terminal FLAG tag were generated. HEK 293 cells were transfected with constructs encoding for mutant hCCR8 or with a mock construct using transIT X2 (reagent:DNA=3:1) for 24 hrs, and surface stained with the huCCR8 antibody hu.Ab5.H13L1 (hIgG1), then fixed and permeabilized and followed by FITC-anti-Flag (Sigma F4049).

The target of test [2] is T8, human CCR8 (human, UniProt P51685 1-355). Description: cell-based or functional assay.
The target in test [3] is T8, human CCR8. Description: cell-based or functional assay. This is another data set of the same source.
Test [4] deals with T9, human CCR8.CCR5 chimera ECL2 (human, UniProt P51681 167-189).
T9 construct: domain: ECL2; Flanking CCR8 ranges derived from the stated replaced range 172-193; on transfected 293 cells; also called ECL2 chimera
Description: flow cytometry, 293 cells transfected with the CCR8.CCR5 chimera ECL2 with C-terminal FLAG. As for the experimental part:
To epitope map fucosylated hu.Ab4.H12L3, the binding to chimeric forms of human CCR8 was analyzed by flow cytometry.

Test [5] addresses T8, human CCR8. Description: cell-based or functional assay. The source holds these as a separate data set.

Positions count from the first letter of the chain named.

B1: hu.Ab5.H13L1 (antibody, human IgG1, kappa)
heavy: not shown
light: DIQVTQSPSSLSASVGDRVTITCQASENIANALAWYQQKPGKPPKFLIYGASNLASGVPSRFSGSGSGTDFTFTISSLQPEDIATYYCQQAYYGNSFVEGTFGGGTKVEIKRTVAAPSVFIFPPSDEQLKSGTASVVCLLNNFYPREAKVQWKVDNALQSGNSQESVTEQDSKDSTYSLSSTLTLSKADYEKHKVYACEVTHQGLSSPVTKSFNRGEC
notes: fucosylated human IgG1; also called Ab5 variant
In the case of B1, the binding result with hCCR8 D2A was “no binding (tested: 0.02 ug/ml)”; in the test with T10A, “binds”; with S23A, “binds”; in the test with Y17A it was “binds”; with I20A, “binds”; in test [1], “binds”. Further, the binding result in the test with hCCR8 L5A is on record as “no binding”.

B2: hu.Ab4.H1L1 (antibody, human IgG1, kappa)
heavy: not shown
light: DYQMTQSPSSLSASVGDRVTITCQASQSISSYLSWYQQKPGKRPKLLIYKASTLASGVPSRFSGSGSGTDFTLTISSLQPEDFATYYCQQGYTSSNIDNIFGGGTKVEIKRTVAAPSVFIFPPSDEQLKSGTASVVCLLNNFYPREAKVQWKVDNALQSGNSQESVTEQDSKDSTYSLSSTLTLSKADYEKHKVYACEVTHQGLSSPVTKSFNRGEC
notes: also called hu.Ab4.H1Ll
For the molecule B2, the “CCL1 blocking potency IC50, Ca2+ influx” value with human CCR8 [2] amounted to 57.9 nM.

B3: hu.Ab4.H12L3 (antibody, human IgG1, kappa)
heavy: not shown
light: B2 light with R43A
notes: fucosylated human IgG1; also called huCCR8-Ab4.H12L3.hIgG1; Ab4 variant
As to B3, in the test with human CCR8 [3], the “ADCP EC50, macrophages HR/FF (FIG. 14A)” value came out at 0.35 nM; the “ADCP EC50, macrophages RR/FF (FIG. 14B)” value is 0.81 nM; the “ADCP EC50, macrophages RR/VF (FIG. 14D)” value turned out to be 0.41 nM. In test [4], the binding result is “no binding”. In addition, in the test with human CCR8 [5], the “Ligand Blocking Activity IC50, Ca2+ influx” value is 57.9 nM.
